From article PMC8852293 (Nature microbiology, 2020)

Target: the molecule itself
Experiment: ITC

B1: HDP1 DNA-binding domain (HDP1 aa2991-3078) (domain or fragment, P. falciparum, UniProt A0A2I0C2C6 2991-3078, looked up)
chain: SEVQVSNINTPSSYNISARRRRRIGNNGPPSAEELNRLLNIQHLTIPEIATIYGVHRTTIARWCNIRNITSNSMNNSPGKRRKNEDNK
- binding result: binds
